T1: BHP2 (pro-survival Bcl-2 homolog from Geodia cydonium), residues 18-200 (Geodia cydonium, UniProt Q967D2 18-200)
T1 construct: BHP2, Geodia cydonium, Uniprot Q967D2, residues 18-200; codon-optimized synthetic cDNA; also called recombinant BHP2; source: E. coli BL21 (DE3) star, purified (Glutathione Sepharose 4B, HRV 3C protease cleavage on column, Superdex S200 SEC)
T1 sequence (looked up): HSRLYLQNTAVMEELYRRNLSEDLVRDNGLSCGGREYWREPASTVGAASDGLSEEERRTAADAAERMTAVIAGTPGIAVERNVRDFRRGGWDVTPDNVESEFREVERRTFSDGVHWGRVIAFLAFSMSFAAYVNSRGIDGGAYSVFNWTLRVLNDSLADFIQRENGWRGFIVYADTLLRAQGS

B1: human Hrk BH3 peptide (peptide)
chain: not shown
B2: LB-Bak-2 BH3 peptide (residues 62-89) (peptide, UniProt Q1RPT5 62-89, looked up)
peptide: ALASSMASEVGRRLAEFGDQVDGQFYQE
notes: LB-Bak-2, Lubomirskia baicalensis, Uniprot Q1RPT5, BH3 motif, residues 62-89; also called LB-Bak-2 BH3 motif; LB-Bak-2 BH3 domain; source: synthetic peptide (GenScript), purified to 95%

Target: T1, BHP2 (pro-survival Bcl-2 homolog from …)
Assay: ITC; BH3 peptide (200 μM) titrated into BHP2 (20 μM), 19 injections of 2.0 μl, MicroCal iTC200, 25 °C, 25 mM HEPES pH 7.5, 150 mM NaCl; triplicate
Conditions: both partners purified

| Binder | Kd |
| --- | --- |
| B1 | 3760 nM |
| B2 | 65 nM |

— PMC5386376, “Structural insight into an evolutionarily ancient programmed cell death regulator – the crystal structure of marine sponge BHP2 bound to LB-Bak-2” (Cell Death & Disease, 2017)
